Data taken from patent US20260242735A1 (UNIVERSIT T BASEL, published 2026).

How the values were obtained:
Assay in all cases: flow cytometry on HEK293-T, alanine scan
human CD33 P155A = human CD33 P155A (human, UniProt P20138 18-364)
Procedure: (§1) An alanine scan on human CD33 was performed to the determine the residues on CD33 that are involved in binding to the antibodies investigated. […] Briefly, a mutation library of CD33 was created by high-throughput, site-directed mutagenesis. Each residue was individually mutated to alanine, with alanine codons mutated to serine. The mutant library was arrayed in 384-well microplates and transiently transfected into HEK293-T. Following transfection, cells were incubated with the indicated antibodies (IgG or Fab) at concentrations pre-determined using an independent immunofluorescence titration curve on wild type CD33. […] Binding of each antibody to each mutant clone was determined in duplicates. For each point, background fluorescence was subtracted from the raw data, which were then normalized to antibody reactivity with wild type CD33.
(§2) Critical residues for antibody binding (outlined in dark grey) were residues whose mutations led to a binding of the test Abs of less than 20%. Additional secondary residues (outlined in light grey) were identified that led to a binding of the test Abs of between 20 and 40% as compared to the wild type CD33.

human CD33 P145A = human CD33 P145A (human, UniProt P20138 18-364)
Procedure: as §1, §2

human CD33 G156A = human CD33 G156A (human, UniProt P20138 18-364)
Procedure: as §1, §2

human CD33 R110A = human CD33 R110A (human, UniProt P20138 18-364)
Procedure: as §1, §2

human CD33 S164A = human CD33 S164A (human, UniProt P20138 18-364)
Procedure: as §1, §2

human CD33 Y116A = human CD33 Y116A (human, UniProt P20138 18-364)
Chain of human CD33 Y116A (P20138 18-364 Y116A limits assumed): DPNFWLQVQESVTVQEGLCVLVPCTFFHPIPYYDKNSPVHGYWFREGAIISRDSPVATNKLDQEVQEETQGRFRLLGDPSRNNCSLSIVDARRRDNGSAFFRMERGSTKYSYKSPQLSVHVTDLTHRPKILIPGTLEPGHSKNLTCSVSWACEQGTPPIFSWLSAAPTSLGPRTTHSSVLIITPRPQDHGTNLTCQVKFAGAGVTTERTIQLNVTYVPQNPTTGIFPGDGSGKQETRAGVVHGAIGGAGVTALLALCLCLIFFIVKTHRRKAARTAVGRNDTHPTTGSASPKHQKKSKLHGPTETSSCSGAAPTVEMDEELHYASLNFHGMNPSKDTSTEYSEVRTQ
Procedure: as §1, §2

human CD33 T142A = human CD33 T142A (human, UniProt P20138 18-364)
Chain of human CD33 T142A (P20138 18-364 T142A limits assumed): as the sequence (P20138 18-364 Y116A limits assumed) above, with A99Y, T125A counted along it
Procedure: as §1, §2

human CD33 K146A = human CD33 K146A (human, UniProt P20138 18-364)
Procedure: as §1, §2

human CD33 L161A = human CD33 L161A (human, UniProt P20138 18-364)
Procedure: as §1, §2

human CD33 T125A = human CD33 T125A (human, UniProt P20138 18-364)
Procedure: as §1, §2

human CD33 W167A = human CD33 W167A (human, UniProt P20138 18-364)
Procedure: as §1, §2

human CD33 R144A = human CD33 R144A (human, UniProt P20138 18-364)
Chain of human CD33 R144A (P20138 18-364 R144A limits assumed): as the sequence (P20138 18-364 Y116A limits assumed) above, with A99Y, R127A counted along it
Procedure: as §1, §2

human CD33 H157A = human CD33 H157A (human, UniProt P20138 18-364)
Chain of human CD33 H157A (P20138 18-364 H157A limits assumed): as the sequence (P20138 18-364 Y116A limits assumed) above, with A99Y, H140A counted along it
Procedure: as §1, §2

human CD33 R111A = human CD33 R111A (human, UniProt P20138 18-364)
Procedure: as §1, §2

human CD33 P132A = human CD33 P132A (human, UniProt P20138 18-364)
Chain of human CD33 P132A (P20138 18-364 P132A limits assumed): as the sequence (P20138 18-364 Y116A limits assumed) above, with A99Y, P115A counted along it
Procedure: as §1, §2

human CD33 P96A = human CD33 P96A (human, UniProt P20138 18-364)
Procedure: as §1, §2

human CD33 K130A = human CD33 K130A (human, UniProt P20138 18-364)
Chain of human CD33 K130A (P20138 18-364 K130A limits assumed): as the sequence (P20138 18-364 Y116A limits assumed) above, with A99Y, K113A counted along it
Procedure: as §1, §2

human CD33 R98A = human CD33 R98A (human, UniProt P20138 18-364)
Procedure: as §1, §2

human CD33 S115A = human CD33 S115A (human, UniProt P20138 18-364)
Procedure: as §1, §2

human CD33 N100A = human CD33 N100A (human, UniProt P20138 18-364)
Procedure: as §1, §2

human CD33 G114A = human CD33 G114A (human, UniProt P20138 18-364)
Procedure: as §1, §2

human CD33 S102A = human CD33 S102A (human, UniProt P20138 18-364)
Chain of human CD33 S102A (P20138 18-364 S102A limits assumed): as the sequence (P20138 18-364 Y116A limits assumed) above, with S85A, A99Y counted along it
Procedure: as §1, §2

human CD33 D95A = human CD33 D95A (human, UniProt P20138 18-364)
Chain of human CD33 D95A (P20138 18-364 D95A limits assumed): as the sequence (P20138 18-364 Y116A limits assumed) above, with D78A, A99Y counted along it
Procedure: as §1, §2

human CD33 N113A = human CD33 N113A (human, UniProt P20138 18-364)
Procedure: as §1, §2

human CD33 P150A = human CD33 P150A (human, UniProt P20138 18-364)
Procedure: as §1, §2

human CD33 D112A = human CD33 D112A (human, UniProt P20138 18-364)
Chain of human CD33 D112A (P20138 18-364 D112A limits assumed): as the sequence (P20138 18-364 Y116A limits assumed) above, with D95A, A99Y counted along it
Procedure: as §1, §2

human CD33 Q133A = human CD33 Q133A (human, UniProt P20138 18-364)
Procedure: as §1, §2

human CD33 D107A = human CD33 D107A (human, UniProt P20138 18-364)
Chain of human CD33 D107A (P20138 18-364 D107A limits assumed): as the sequence (P20138 18-364 Y116A limits assumed) above, with D90A, A99Y counted along it
Procedure: as §1, §2

human CD33 V165A = human CD33 V165A (human, UniProt P20138 18-364)
Chain of human CD33 V165A (P20138 18-364 V165A limits assumed): as the sequence (P20138 18-364 Y116A limits assumed) above, with A99Y, V148A counted along it
Procedure: as §1, §2

human CD33 R122A = human CD33 R122A (human, UniProt P20138 18-364)
Procedure: as §1, §2

human CD33 L103A = human CD33 L103A (human, UniProt P20138 18-364)
Procedure: as §1, §2

human CD33 F117A = human CD33 F117A (human, UniProt P20138 18-364)
Procedure: as §1, §2

human CD33 S131A = human CD33 S131A (human, UniProt P20138 18-364)
Procedure: as §1, §2

human CD33 E121A = human CD33 E121A (human, UniProt P20138 18-364)
Procedure: as §1, §2

human CD33 V136A = human CD33 V136A (human, UniProt P20138 18-364)
Procedure: as §1, §2

human CD33 I149A = human CD33 I149A (human, UniProt P20138 18-364)
Chain of human CD33 I149A (P20138 18-364 I149A limits assumed): as the sequence (P20138 18-364 Y116A limits assumed) above, with A99Y, I132A counted along it
Procedure: as §1, §2

Chain of human CD33 R110A (P20138 18-364 R110A limits assumed): as the sequence (P20138 18-364 Y116A limits assumed) above, with R93A, A99Y counted along it
Chain of human CD33 P155A (P20138 18-364 P155A limits assumed): as the sequence (P20138 18-364 Y116A limits assumed) above, with A99Y, P138A counted along it

Row | Binder | Mean % WT Binding (human CD33 P155A) | Mean % WT Binding (human CD33 P145A) | Mean % WT Binding (human CD33 G156A) | Mean % WT Binding (human CD33 R110A) | Mean % WT Binding (human CD33 S164A) | Mean % WT Binding (human CD33 Y116A) | Mean % WT Binding (human CD33 T142A) | Mean % WT Binding (human CD33 K146A) | Mean % WT Binding (human CD33 L161A) | Mean % WT Binding (human CD33 T125A) | Mean % WT Binding (human CD33 W167A) | Mean % WT Binding (human CD33 R144A) | Mean % WT Binding (human CD33 H157A) | Mean % WT Binding (human CD33 R111A) | Mean % WT Binding (human CD33 P132A) | Mean % WT Binding (human CD33 P96A) | Mean % WT Binding (human CD33 K130A) | Mean % WT Binding (human CD33 R98A) | Mean % WT Binding (human CD33 S115A) | Mean % WT Binding (human CD33 N100A) | also measured
1 | Refmab #1 (antibody, V domains shown, The alanine scan used IgG or Fab; also called hP67.6) VH: EVQLVQSGAEVKKPGSSVKVSCKASGYTITDSNIHWVRQAPGQSLEWIGYIYPYNGGTDYNQKFKNRATLTVDNPTNTAYMELSSLRSEDTAFYYCVNGNPWLAYWGQGTLVTVSS VL: DIQLTQSPSTLSASVGDRVTITCRASESLDNYGIRFLTWFQQKPGKAPKLLMYAASNQGSGVPSRFSGSGSGTEFTLTISSLQPDDFATYYCQQTKEVPWSFGQGTKVEVK | 84.4 % WT binding | 89.3 % WT binding | 83.4 % WT binding | 94.9 % WT binding | 101 % WT binding | 0.9 % WT binding | 85.1 % WT binding | 78.5 % WT binding | 87 % WT binding | 92.4 % WT binding | 89.4 % WT binding | 110 % WT binding | 86.6 % WT binding | 100 % WT binding | 107 % WT binding | 84.9 % WT binding | 106 % WT binding | 99.1 % WT binding | 86.9 % WT binding | 94.8 % WT binding | Mean % WT Binding (human CD33 G114A): 96.9 % WT binding; Mean % WT Binding (human CD33 S102A): 85.8 % WT binding; Mean % WT Binding (human CD33 D95A): 80.5 % WT binding; Mean % WT Binding (human CD33 N113A): 96 % WT binding; Mean % WT Binding (human CD33 P150A): 78.4 % WT binding; Mean % WT Binding (human CD33 D112A): 51.8 % WT binding; Mean % WT Binding (human CD33 Q133A): 95.6 % WT binding; Mean % WT Binding (human CD33 D107A): 87.7 % WT binding; Mean % WT Binding (human CD33 V165A): 91.6 % WT binding; Mean % WT Binding (human CD33 R122A): 107 % WT binding; Mean % WT Binding (human CD33 L103A): 96.3 % WT binding; Mean % WT Binding (human CD33 F117A): 98.7 % WT binding; Mean % WT Binding (human CD33 S131A): 85.9 % WT binding; Mean % WT Binding (human CD33 E121A): 87.7 % WT binding; Mean % WT Binding (human CD33 V136A): 64.2 % WT binding; Mean % WT Binding (human CD33 I149A): 87.5 % WT binding
2 | Refmab #2 (antibody, V domains shown, The alanine scan used IgG or Fab) VH: QVQLVQSGAEVKKPGSSVKVSCKASGGTFSDYAISWVRQAPGQGLEWMGRIIPILGVADYAQKFQGRVTITADKSTRTAYMELSSLRSEDTAVYYCARNWADAFDIWGQGTMVTVSS VL: DIQLTQSPSSLSASVGDRVTITCRASQGISSVLAWYQQKPGKAPKLLIYDASSLESGVPSRFSGSGSGTDFTLTISSLQPEDFATYYCQQFDSSITFGQGTKLEIK | 126 % WT binding | 105 % WT binding | 99.4 % WT binding | 109 % WT binding | 117 % WT binding | 0.7 % WT binding | 104 % WT binding | 115 % WT binding | 114 % WT binding | 107 % WT binding | 109 % WT binding | 112 % WT binding | 115 % WT binding | 108 % WT binding | 102 % WT binding | 102 % WT binding | 123 % WT binding | 122 % WT binding | 93.2 % WT binding | 97 % WT binding | Mean % WT Binding (human CD33 G114A): 116 % WT binding; Mean % WT Binding (human CD33 S102A): 89.6 % WT binding; Mean % WT Binding (human CD33 D95A): 110 % WT binding; Mean % WT Binding (human CD33 N113A): 91 % WT binding; Mean % WT Binding (human CD33 P150A): 112 % WT binding; Mean % WT Binding (human CD33 D112A): 58.7 % WT binding; Mean % WT Binding (human CD33 Q133A): 131 % WT binding; Mean % WT Binding (human CD33 D107A): 109 % WT binding; Mean % WT Binding (human CD33 V165A): 124 % WT binding; Mean % WT Binding (human CD33 R122A): 3.6 % WT binding; Mean % WT Binding (human CD33 L103A): 110 % WT binding; Mean % WT Binding (human CD33 F117A): 111 % WT binding; Mean % WT Binding (human CD33 S131A): 123 % WT binding; Mean % WT Binding (human CD33 E121A): 109 % WT binding; Mean % WT Binding (human CD33 V136A): 99.8 % WT binding; Mean % WT Binding (human CD33 I149A): 116 % WT binding
3 | Refmab #3 (antibody, V domains shown, The alanine scan used IgG or Fab) VH: QVQLVQSGAEVKKPGSSVKVSCKASGYTFTDYNMHWVRQAPGQGLEWIGYIYPYNGGTGYNQKFKSKATITADESTNTAYMELSSLRSEDTAVYYCARGRPAMDYWGQGTLVTVSS VL: DIQMTQSPSSLSASVGDRVTITCRASESVDNYGISFMNWFQQKPGKAPKLLIYAASNQGSGVPSRFSGSGSGTDFTLTISSLQPDDFATYYCQQSKEVPWTFGQGTKVEIK | 114 % WT binding | 75.2 % WT binding | 116 % WT binding | 99.1 % WT binding | 96.3 % WT binding | 5.3 % WT binding | 133 % WT binding | 118 % WT binding | 116 % WT binding | 932 % WT binding | 129 % WT binding | 112 % WT binding | 138 % WT binding | 93.4 % WT binding | 74.5 % WT binding | 140 % WT binding | 152 % WT binding | 102 % WT binding | 77.2 % WT binding | 107 % WT binding | Mean % WT Binding (human CD33 G114A): 92.6 % WT binding; Mean % WT Binding (human CD33 S102A): 75.9 % WT binding; Mean % WT Binding (human CD33 D95A): 103 % WT binding; Mean % WT Binding (human CD33 N113A): 81.4 % WT binding; Mean % WT Binding (human CD33 P150A): 102 % WT binding; Mean % WT Binding (human CD33 D112A): 77.5 % WT binding; Mean % WT Binding (human CD33 Q133A): 101 % WT binding; Mean % WT Binding (human CD33 D107A): 92.5 % WT binding; Mean % WT Binding (human CD33 V165A): 116 % WT binding; Mean % WT Binding (human CD33 R122A): 177 % WT binding; Mean % WT Binding (human CD33 L103A): 113 % WT binding; Mean % WT Binding (human CD33 F117A): 166 % WT binding; Mean % WT Binding (human CD33 S131A): 117 % WT binding; Mean % WT Binding (human CD33 E121A): 132 % WT binding; Mean % WT Binding (human CD33 V136A): 106 % WT binding; Mean % WT Binding (human CD33 I149A): 101 % WT binding
4 | Refmab #4 (antibody, V domains shown, The alanine scan used IgG or Fab) VH: QVQLVQSGAEVKKPGESVKVSCKASGYTFTNYGMNWVKQAPGQGLEWMGWINTYTGEPTYADKFQGRVTMTTDTSTSTAYMEIRNLGGDDTAVYYCARWSWSDGYYVYFDYWGQGTSVTVSS VL: DIVMTQSPDSLTVSLGERTTINCKSSQSVLDSSTNKNSLAWYQQKPGQPPKLLLSWASTRESGIPDRFSGSGSGTDFTLTIDSPQPEDSATYYCQQSAHFPITFGQGTRLEIK | 111 % WT binding | 78.8 % WT binding | 67.2 % WT binding | 88.4 % WT binding | 112 % WT binding | 5.4 % WT binding | 88.8 % WT binding | 122 % WT binding | 114 % WT binding | 218 % WT binding | 112 % WT binding | 99.7 % WT binding | 97.4 % WT binding | 94.3 % WT binding | 70.1 % WT binding | 27.4 % WT binding | 180 % WT binding | 128 % WT binding | 36.4 % WT binding | 123 % WT binding | Mean % WT Binding (human CD33 G114A): 110 % WT binding; Mean % WT Binding (human CD33 S102A): 73.6 % WT binding; Mean % WT Binding (human CD33 D95A): 90.9 % WT binding; Mean % WT Binding (human CD33 N113A): 45.1 % WT binding; Mean % WT Binding (human CD33 P150A): 103 % WT binding; Mean % WT Binding (human CD33 D112A): 36 % WT binding; Mean % WT Binding (human CD33 Q133A): 96 % WT binding; Mean % WT Binding (human CD33 D107A): 93 % WT binding; Mean % WT Binding (human CD33 V165A): 117 % WT binding; Mean % WT Binding (human CD33 R122A): 23 % WT binding; Mean % WT Binding (human CD33 L103A): 85.9 % WT binding; Mean % WT Binding (human CD33 F117A): 142 % WT binding; Mean % WT Binding (human CD33 S131A): 134 % WT binding; Mean % WT Binding (human CD33 E121A): 77.3 % WT binding; Mean % WT Binding (human CD33 V136A): 47.7 % WT binding; Mean % WT Binding (human CD33 I149A): 99.9 % WT binding
